Assay results reported in IntAct's records for PubMed 31515488.

B1: Low-density lipoprotein receptor class A domain-containing protein 1 (Homo sapiens), Q5T700 (parent)
chain: MNKVFPQGENGYTAAESKAHPGGEAGGGHLCCSRRGACLSASLLLLLATVAALIALVTILGLPSCTPGAQACITLTNRTGFLCHDQRSCIPASGVCDGVRTCTHGEDEDESLCRDVPQSLPHFLVAHCGDPASWIYSDQKCDGTNNCGDCSDELSPVTVCPPCGPGWWRCPSTFFKYCDCIPRHLCRDHVQHCSDWSDEYACPGP
partner: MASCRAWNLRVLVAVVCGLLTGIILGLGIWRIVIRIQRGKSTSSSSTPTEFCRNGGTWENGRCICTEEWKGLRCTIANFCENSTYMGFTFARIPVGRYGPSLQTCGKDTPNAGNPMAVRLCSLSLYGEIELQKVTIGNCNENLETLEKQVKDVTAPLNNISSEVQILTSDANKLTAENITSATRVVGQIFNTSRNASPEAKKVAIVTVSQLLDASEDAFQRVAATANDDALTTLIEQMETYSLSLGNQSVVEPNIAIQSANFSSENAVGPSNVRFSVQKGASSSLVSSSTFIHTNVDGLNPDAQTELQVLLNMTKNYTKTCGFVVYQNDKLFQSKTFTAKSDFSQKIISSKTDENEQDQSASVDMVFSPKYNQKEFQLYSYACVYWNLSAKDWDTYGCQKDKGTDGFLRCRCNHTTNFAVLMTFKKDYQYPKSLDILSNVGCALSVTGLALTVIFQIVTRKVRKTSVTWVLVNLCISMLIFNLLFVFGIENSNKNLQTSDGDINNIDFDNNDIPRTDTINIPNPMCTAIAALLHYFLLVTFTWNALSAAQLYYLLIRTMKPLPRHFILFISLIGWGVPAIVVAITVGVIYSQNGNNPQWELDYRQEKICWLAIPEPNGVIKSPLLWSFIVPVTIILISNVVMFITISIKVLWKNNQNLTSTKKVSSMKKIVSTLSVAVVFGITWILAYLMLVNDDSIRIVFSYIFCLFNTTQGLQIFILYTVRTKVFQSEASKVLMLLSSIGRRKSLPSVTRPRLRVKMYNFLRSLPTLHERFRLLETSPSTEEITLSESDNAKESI
B2: Protein DBF4 homolog B (Homo sapiens), Q8NFT6 (parent)
chain: MSEPGKGDDCLELESSMAESRLRAPDLGVSRCLGKCQKNSPGARKHPFSGKSFYLDLPAGKNLQFLTGAIQQLGGVIEGFLSKEVSYIVSSRREVKAESSGKSHRGCPSPSPSEVRVETSAMVDPKGSHPRPSRKPVDSVPLSRGKELLQKAIRNQGSISGGGSGGSSSLLTNARSWGVRILHVDEMMMHVQQLSLASLCVKKQQPKKPEGTCPAAESRTRKVARLKAPFLKIEDESRKFRPFHHQFKSFPEISFLGPKDASPFEAPTTLGSMHHTRESKDGEPSPRSAAHTMPRRKKGYCECCQEAFEELHVHLQSAQHRSFALEAHLYAEVDRIIAQLSHSFADIPFQAGLPRWSGSPASDCDPLCPETLHPHQPSHPRAASPRIRKEDSCQASVTQGRAAGQQRWTESLDGVMGPPASHTCVSATTLLPALPKGSREQGCLCPCPASFTQSHLVTSLALLPGEWSPAEDMPLHPSQENSFAPADIPVKGPLLFPEARPWLMSARCWVRPFPFVTWGCLIPHDTTPLHEEVSPCPCLRLGYLYLLLTQSLWCRVRVPSLSTAGPIPRTSHPCTLAFPSYLNDHDLGHLCQAKPQGWNTPQPFLHCGFLAVDSG
partner: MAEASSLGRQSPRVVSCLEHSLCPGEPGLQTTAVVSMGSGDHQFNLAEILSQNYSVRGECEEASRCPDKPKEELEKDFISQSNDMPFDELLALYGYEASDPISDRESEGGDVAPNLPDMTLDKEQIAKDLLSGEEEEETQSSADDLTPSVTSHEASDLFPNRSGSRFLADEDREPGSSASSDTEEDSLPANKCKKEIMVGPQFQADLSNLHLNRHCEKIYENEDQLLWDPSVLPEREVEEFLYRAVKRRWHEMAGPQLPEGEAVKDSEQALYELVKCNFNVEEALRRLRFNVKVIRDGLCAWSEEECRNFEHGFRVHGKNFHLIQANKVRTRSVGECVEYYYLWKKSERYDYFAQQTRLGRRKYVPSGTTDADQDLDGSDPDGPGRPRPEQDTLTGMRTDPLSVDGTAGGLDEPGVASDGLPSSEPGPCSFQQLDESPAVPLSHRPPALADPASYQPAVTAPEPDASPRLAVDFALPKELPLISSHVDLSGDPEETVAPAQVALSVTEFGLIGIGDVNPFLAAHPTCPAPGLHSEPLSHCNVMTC
B3: Protein FAM168A (Homo sapiens), Q92567 (parent)
chain: MNPVYSPVQPGAPYGNPKNMAYTGYPTAYPAAAPAYNPSLYPTNSPSYAPEFQFLHSAYATLLMKQAWPQNSSSCGTEGTFHLPVDTGTENRTYQASSAAFRYTAGTPYKVPPTQSNTAPPPYSPSPNPYQTAMYPIRSAYPQQNLYAQGAYYTQPVYAAQPHVIHHTTVVQPNSIPSAIYPAPVAAPRTNGVAMGMVAGTTMAMSAGTLLTTPQHTAIGAHPVSMPTYRAQGTPAYSYVPPHW
B4: Eukaryotic translation initiation factor 4E-binding protein 2 (Homo sapiens), Q13542 (parent)
chain: MSSSAGSGHQPSQSRAIPTRTVAISDAAQLPHDYCTTPGGTLFSTTPGGTRIIYDRKFLLDRRNSPMAQTPPCHLPNIPGVTSPGTLIEDSKVEVNNLNNLNNHDRKHAVGDDAQFEMDI
B5: Keratin, type I cytoskeletal 20 (Homo sapiens), P35900 (parent)
chain: MDFSRRSFHRSLSSSLQAPVVSTVGMQRLGTTPSVYGGAGGRGIRISNSRHTVNYGSDLTGGGDLFVGNEKMAMQNLNDRLASYLEKVRTLEQSNSKLEVQIKQWYETNAPRAGRDYSAYYRQIEELRSQIKDAQLQNARCVLQIDNAKLAAEDFRLKYETERGIRLTVEADLQGLNKVFDDLTLHKTDLEIQIEELNKDLALLKKEHQEEVDGLHKHLGNTVNVEVDAAPGLNLGVIMNEMRQKYEVMAQKNLQEAKEQFERQTAVLQQQVTVNTEELKGTEVQLTELRRTSQSLEIELQSHLSMKESLEHTLEETKARYSSQLANLQSLLSSLEAQLMQIRSNMERQNNEYHILLDIKTRLEQEIATYRRLLEGEDVKTTEYQLSTLEERDIKKTRKIKTVVQEVVDGKVVSSEVKEVEENI
partner: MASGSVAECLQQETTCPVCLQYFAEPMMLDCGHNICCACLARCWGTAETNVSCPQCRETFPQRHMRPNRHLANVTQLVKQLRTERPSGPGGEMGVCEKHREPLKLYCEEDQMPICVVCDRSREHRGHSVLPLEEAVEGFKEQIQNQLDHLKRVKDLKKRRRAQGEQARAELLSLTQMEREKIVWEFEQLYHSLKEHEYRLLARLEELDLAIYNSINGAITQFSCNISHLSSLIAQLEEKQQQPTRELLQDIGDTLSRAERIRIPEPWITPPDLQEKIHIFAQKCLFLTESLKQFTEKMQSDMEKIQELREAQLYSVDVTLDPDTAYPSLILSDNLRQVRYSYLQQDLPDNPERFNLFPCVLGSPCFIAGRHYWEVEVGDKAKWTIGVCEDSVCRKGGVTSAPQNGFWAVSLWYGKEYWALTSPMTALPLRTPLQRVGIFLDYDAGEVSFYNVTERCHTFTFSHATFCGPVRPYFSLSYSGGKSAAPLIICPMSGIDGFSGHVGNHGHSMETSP
B6: Sodium channel modifier 1 (Homo sapiens), Q9BWG6 (parent)
chain: MSFKREGDDWSQLNVLKKRRVGDLLASYIPEDEALMLRDGRFACAICPHRPVLDTLAMLTAHRAGKKHLSSLQLFYGKKQPGKERKQNPKHQNELRREETKAEAPLLTQTRLITQSALHRAPHYNSCCRRKYRPEAPGPSVSLSPMPPSEVKLQSGKISREPEPAAGPQAEESATVSAPAPMSPTRRRALDHYLTLRSSGWIPDGRGRWVKDENVEFDSDEEEPPDLPLD

Variants of: B1
Settings: with agrg7_human ADGRG7, Q96K78
E108K was tested, and the “effect of a mutation on the interaction” value was “with no effect”.

Variants of: B2
Settings: with mier2_human MIER2, Q8N344
For L199S, the “effect of a mutation on the interaction” value was “with no effect”.

Variants of: B3
Settings: with ru1c_human SNRPC
In the case of P122R, the “effect of a mutation on the interaction” value is reported as “with no effect”.

Variants of: B3
Settings: with ubs3b_human UBASH3B
With P122R the “effect of a mutation on the interaction” value was “disrupting interaction strength”.

Variants of: B3
Settings: with ub2v1_human UBE2V1, Q13404
Chain of ub2v1_human UBE2V1, Q13404 (Q13404 whole entry): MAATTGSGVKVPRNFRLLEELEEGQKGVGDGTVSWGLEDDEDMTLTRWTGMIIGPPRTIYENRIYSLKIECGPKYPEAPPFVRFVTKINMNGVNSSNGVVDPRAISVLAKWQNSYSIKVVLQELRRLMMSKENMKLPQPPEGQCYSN
In the case of P122R, the “effect of a mutation on the interaction” value is reported as “disrupting interaction strength”.

Variants of: B4
Settings: with if4e_human EIF4E
In the case of G6D, the “effect of a mutation on the interaction” value is reported as “with no effect”.

Variants of: B5
Settings: with tri27_human TRIM27, P14373
For S309Y, the “effect of a mutation on the interaction” value was “with no effect”. With S129N the “effect of a mutation on the interaction” value was “with no effect”.

Variants of: B6
Settings: with hm20a_human HMG20A
For R206P, the “effect of a mutation on the interaction” value was “with no effect”.

Variants of: B6
Settings: with trim1_human MID2, Q9UJV3
Chain of trim1_human MID2, Q9UJV3 (Q9UJV3 whole entry): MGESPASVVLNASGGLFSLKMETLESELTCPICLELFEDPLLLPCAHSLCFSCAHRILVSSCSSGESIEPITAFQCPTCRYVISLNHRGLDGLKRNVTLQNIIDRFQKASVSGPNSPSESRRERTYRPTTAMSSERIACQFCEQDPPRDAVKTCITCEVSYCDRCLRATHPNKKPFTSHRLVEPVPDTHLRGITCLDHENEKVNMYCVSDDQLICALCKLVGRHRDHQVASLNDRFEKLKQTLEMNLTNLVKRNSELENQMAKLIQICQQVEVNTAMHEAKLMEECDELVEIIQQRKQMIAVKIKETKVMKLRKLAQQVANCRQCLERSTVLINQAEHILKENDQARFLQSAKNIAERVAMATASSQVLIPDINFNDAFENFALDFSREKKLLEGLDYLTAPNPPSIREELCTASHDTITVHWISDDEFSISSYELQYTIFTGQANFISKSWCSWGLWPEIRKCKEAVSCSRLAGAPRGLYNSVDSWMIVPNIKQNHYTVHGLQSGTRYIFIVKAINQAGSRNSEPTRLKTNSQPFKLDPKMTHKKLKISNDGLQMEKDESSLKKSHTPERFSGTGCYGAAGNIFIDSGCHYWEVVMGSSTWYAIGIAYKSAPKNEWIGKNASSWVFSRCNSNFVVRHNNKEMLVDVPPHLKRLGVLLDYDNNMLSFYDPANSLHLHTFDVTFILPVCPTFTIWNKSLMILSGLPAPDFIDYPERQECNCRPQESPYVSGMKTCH
For R206P, the “effect of a mutation on the interaction” value was “with no effect”.

Variants of: B6
Settings: with pls1_human PLSCR1, O15162
Chain of pls1_human PLSCR1, O15162 (O15162 whole entry): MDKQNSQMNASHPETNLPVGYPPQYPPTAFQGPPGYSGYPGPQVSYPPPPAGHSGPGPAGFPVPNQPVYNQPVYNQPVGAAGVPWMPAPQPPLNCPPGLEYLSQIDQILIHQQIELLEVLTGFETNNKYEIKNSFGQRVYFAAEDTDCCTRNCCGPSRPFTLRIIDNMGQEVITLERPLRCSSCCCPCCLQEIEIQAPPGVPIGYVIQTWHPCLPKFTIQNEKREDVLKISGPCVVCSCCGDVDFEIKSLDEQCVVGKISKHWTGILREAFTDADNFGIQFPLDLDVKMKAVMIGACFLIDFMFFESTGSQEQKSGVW
R206P was tested, and the “effect of a mutation on the interaction” value was “with no effect”.

Variants of: B6
Settings: with inca1_human INCA1, Q0VD86
Chain of inca1_human INCA1, Q0VD86 (Q0VD86 whole entry): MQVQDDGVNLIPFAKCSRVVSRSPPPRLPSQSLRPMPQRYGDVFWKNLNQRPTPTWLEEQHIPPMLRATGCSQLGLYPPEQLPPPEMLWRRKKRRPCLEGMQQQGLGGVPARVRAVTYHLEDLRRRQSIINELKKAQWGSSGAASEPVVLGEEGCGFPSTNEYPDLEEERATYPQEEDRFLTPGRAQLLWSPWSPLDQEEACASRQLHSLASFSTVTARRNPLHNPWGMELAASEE
With R206P the “effect of a mutation on the interaction” value was “with no effect”.
